Experimental data published in publication PMC6722581.

Experiments:
[1] = target: head domain of measles virus hemagglutinin, Edmonston vaccine strain (measles virus, Edmonston strain) (UniProt P08362); assay: SPR
[2] = target: head domain of measles virus hemagglutinin, IC-B wild-type strain (measles virus, IC-B strain) (UniProt Q786F2); assay: SPR
UniProt Q786F2, sequence (Q786F2 149-617): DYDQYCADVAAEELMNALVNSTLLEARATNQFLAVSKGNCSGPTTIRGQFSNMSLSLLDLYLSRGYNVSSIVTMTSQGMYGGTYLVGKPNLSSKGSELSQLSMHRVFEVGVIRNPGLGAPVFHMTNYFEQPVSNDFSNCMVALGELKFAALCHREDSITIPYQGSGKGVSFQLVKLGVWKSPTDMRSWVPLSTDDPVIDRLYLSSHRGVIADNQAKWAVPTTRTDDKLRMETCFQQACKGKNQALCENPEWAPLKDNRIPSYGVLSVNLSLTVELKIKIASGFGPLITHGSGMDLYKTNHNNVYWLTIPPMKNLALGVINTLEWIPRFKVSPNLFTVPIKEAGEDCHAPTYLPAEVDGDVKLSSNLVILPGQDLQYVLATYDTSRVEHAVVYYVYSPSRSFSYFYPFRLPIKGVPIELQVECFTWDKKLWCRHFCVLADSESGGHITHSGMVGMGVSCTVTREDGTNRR

UniProt P08362, sequence (P08362 149-617): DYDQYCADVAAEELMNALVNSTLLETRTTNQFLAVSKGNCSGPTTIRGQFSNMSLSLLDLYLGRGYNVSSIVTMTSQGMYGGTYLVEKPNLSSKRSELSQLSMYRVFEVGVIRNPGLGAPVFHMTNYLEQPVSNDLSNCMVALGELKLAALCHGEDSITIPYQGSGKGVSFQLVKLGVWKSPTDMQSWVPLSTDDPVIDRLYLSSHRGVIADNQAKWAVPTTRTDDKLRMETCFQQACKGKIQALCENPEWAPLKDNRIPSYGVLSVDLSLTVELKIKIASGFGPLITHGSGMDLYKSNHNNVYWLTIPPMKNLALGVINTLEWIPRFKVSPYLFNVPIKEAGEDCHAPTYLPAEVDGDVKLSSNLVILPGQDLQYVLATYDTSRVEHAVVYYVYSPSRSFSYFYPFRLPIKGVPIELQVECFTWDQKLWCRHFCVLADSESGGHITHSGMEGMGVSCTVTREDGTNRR

## soluble human SLAM, chimeric protein of a human V-set with a mouse C2 domain (domain or fragment)
[1]
  Kd: 0.0608 µM
  koff: 0.00291 s⁻¹
  kon: 47900 M⁻¹ s⁻¹
[2]
  Kd: 0.448 µM
  koff: 0.00637 s⁻¹
  kon: 14100 M⁻¹ s⁻¹
